The record followed here is paper PMC10438374, “FAN1 removes triplet repeat extrusions via a PCNA- and RFC-dependent mechanism” (Proceedings of the National Academy of Sciences of the …, 2023).

This assay addresses T1, MutLα (MLH1/PMS2 heterodimer), recombinant human (human, UniProt P40692 1-756; P54278 1-862).
T1 construct: MLH1 subunit of human MutLα; PMS2 subunit of human MutLα; Heterodimer; source: recombinant (details in SI Appendix)
As to the kind of experiment: far-Western, overlay or dot blot; far-western analysis of FAN1 and MutLα (SI Appendix, Fig. S4E); which protein was spotted is not told in the main text. The conditions noted are these: both partners purified.

B1: FAN1 (FANCD2 and FANCI-associated nuclease 1), recombinant full-length human (enzyme, UniProt Q9Y2M0 1-1017, looked up)
chain: MMSEGKPPDKKRPRRSLSISKNKKKASNSIISCFNNAPPAKLACPVCSKMVPRYDLNRHLDEMCANNDFVQVDPGQVGLINSNVSMVDLTSVTLEDVTPKKSPPPKTNLTPGQSDSAKREVKQKISPYFKSNDVVCKNQDELRNRSVKVICLGSLASKLSRKYVKAKKSIDKDEEFAGSSPQSSKSTVVKSLIDNSSEIEDEDQILENSSQKENVFKCDSLKEECIPEHMVRGSKIMEAESQKATRECEKSALTPGFSDNAIMLFSPDFTLRNTLKSTSEDSLVKQECIKEVVEKREACHCEEVKMTVASEAKIQLSDSEAKSHSSADDASAWSNIQEAPLQDDSCLNNDIPHSIPLEQGSSCNGPGQTTGHPYYLRSFLVVLKTVLENEDDMLLFDEQEKGIVTKFYQLSATGQKLYVRLFQRKLSWIKMTKLEYEEIALDLTPVIEELTNAGFLQTESELQELSEVLELLSAPELKSLAKTFHLVNPNGQKQQLVDAFLKLAKQRSVCTWGKNKPGIGAVILKRAKALAGQSVRICKGPRAVFSRILLLFSLTDSMEDEDAACGGQGQLSTVLLVNLGRMEFPSYTINRKTHIFQDRDDLIRYAAATHMLSDISSAMANGNWEEAKELAQCAKRDWNRLKNHPSLRCHEDLPLFLRCFTVGWIYTRILSRFVEILQRLHMYEEAVRELESLLSQRIYCPDSRGRWWDRLALNLHQHLKRLEPTIKCITEGLADPEVRTGHRLSLYQRAVRLRESPSCKKFKHLFQQLPEMAVQDVKHVTITGRLCPQRGMCKSVFVMEAGEAADPTTVLCSVEELALAHYRRSGFDQGIHGEGSTFSTLYGLLLWDIIFMDGIPDVFRNACQAFPLDLCTDSFFTSRRPALEARLQLIHDAPEESLRAWVAATWHEQEGRVASLVSWDRFTSLQQAQDLVSCLGGPVLSGVCRHLAADFRHCRGGLPDLVVWNSQSRHFKLVEVKGPNDRLSHKQMIWLAELQKLGAEVEVCHVVAVGAKSQSLS
notes: FAN1 (FANCD2 and FANCI-associated nuclease 1), human, full length; also called FAN1 nuclease; source: recombinant; prepared as per previously established procedures (details in SI Appendix)
On to B1, for which the binding result is given as “binds”.
